Data from paper PMC4551902, “Aquaporins Mediate Silicon Transport in Humans” (PLoS ONE, 2015).

What was measured:
AQP9 = target: T1, AQP9 (Homo sapiens, UniProt O43315); test: Si influx and osmotic water transport in oocytes; type: cell-based; conditions: 0.1 mM phloretin; Si influx: B2a hypoosmolar medium, 2 mM H4SiO4, 30 min; water transport: ~10 mM sucrose, 20 s
T1 construct: full-length human cDNA in Pol1 vector, untagged, expressed in Xenopus laevis oocytes
T1 sequence (O43315 1-295): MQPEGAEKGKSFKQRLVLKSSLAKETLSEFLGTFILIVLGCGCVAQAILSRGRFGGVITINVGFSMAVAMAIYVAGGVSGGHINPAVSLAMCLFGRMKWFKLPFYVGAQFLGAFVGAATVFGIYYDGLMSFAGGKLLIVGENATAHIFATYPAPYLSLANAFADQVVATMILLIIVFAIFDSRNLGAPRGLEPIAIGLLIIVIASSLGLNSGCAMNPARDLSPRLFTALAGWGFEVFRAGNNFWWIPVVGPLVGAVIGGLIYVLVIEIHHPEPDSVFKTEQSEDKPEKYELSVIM

lsi1 = target: T2, lsi1 (Oryza sativa, UniProt Q6Z2T3); test: 68Ge influx into oocytes, liquid scintillation counting; type: cell-based; conditions: 2 mM H4GeO4 with 68Ge tracer, B1 medium, pH 7.4, 90 min; labelled compound
T2 construct: gene NIP2-1; expressed in Xenopus laevis oocytes
T2 sequence (Q6Z2T3 1-298): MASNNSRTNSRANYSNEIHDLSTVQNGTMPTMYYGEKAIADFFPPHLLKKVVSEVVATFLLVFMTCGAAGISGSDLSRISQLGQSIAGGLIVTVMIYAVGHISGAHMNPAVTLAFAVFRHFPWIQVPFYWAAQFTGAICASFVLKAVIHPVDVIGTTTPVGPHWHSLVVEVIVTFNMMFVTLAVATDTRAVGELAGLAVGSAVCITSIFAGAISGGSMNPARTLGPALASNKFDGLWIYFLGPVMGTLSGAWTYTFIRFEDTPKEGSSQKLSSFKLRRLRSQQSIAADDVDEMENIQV

[1] = substrate: O[Si](O)(O)O; test: cells, lysate or membranes; conditions: B1 medium, 4-parameter logistic fit

Molecule: O=C(CCc1ccc(O)cc1)c1c(O)cc(O)cc1O [phloretin]
- effect on Si influx and water transport at 0.1 mM (AQP9): Si transport by AQP9 is seen to be stimulated by the water transport inhibitor phloretin

Molecule: [OH][Ge]([OH])([OH])[OH] [H4GeO4]
- 68Ge influx into oocytes, liquid scintillation counting (lsi1): significantly different relative to background, between channels (for a given substrate)

B1: AQP7 (Homo sapiens) (protein)
chain: MVQASGHRRSTRGSKMVSWSVIAKIQEILQRKMVREFLAEFMSTYVMMVFGLGSVAHMVLNKKYGSYLGVNLGFGFGVTMGVHVAGRISGAHMNAAVTFANCALGRVPWRKFPVYVLGQFLGSFLAAATIYSLFYTAILHFSGGQLMVTGPVATAGIFATYLPDHMTLWRGFLNEAWLTGMLQLCLFAITDQENNPALPGTEALVIGILVVIIGVSLGMNTGYAINPSRDLPPRIFTFIAGWGKQVFSNGENWWWVPVVAPLLGAYLGGIIYLVFIGSTIPREPLKLEDSVAYEDHGITVLPKMGSHEPTISPLTPVSVSPANRSSVHPAPPLHESMALEHF
- K0.5 ([1]; pH 7.4, 0-2 mM H4SiO4 (value above tested range), 90 min): 2300 µM

B2: AQP10 (Homo sapiens) (protein)
chain: MVFTQAPAEIMGHLRIRSLLARQCLAEFLGVFVLMLLTQGAVAQAVTSGETKGNFFTMFLAGSLAVTIAIYVGGNVSGAHLNPAFSLAMCIVGRLPWVKLPIYILVQLLSAFCASGATYVLYHDALQNYTGGNLTVTGPKETASIFATYPAPYLSLNNGFLDQVLGTGMLIVGLLAILDRRNKGVPAGLEPVVVGMLILALGLSMGANCGIPLNPARDLGPRLFTYVAGWGPEVFSAGNGWWWVPVVAPLVGATVGTATYQLLVALHHPEGPEPAQDLVSAQHKASELETPASAQMLECKL
- K0.5 ([1]; pH 7.4, 0-2 mM H4SiO4, 60 min): 470 µM

B3: AQP9 (Homo sapiens) (protein)
chain: MQPEGAEKGKSFKQRLVLKSSLAKETLSEFLGTFILIVLGCGCVAQAILSRGRFGGVITINVGFSMAVAMAIYVAGGVSGGHINPAVSLAMCLFGRMKWFKLPFYVGAQFLGAFVGAATVFGIYYDGLMSFAGGKLLIVGENATAHIFATYPAPYLSLANAFADQVVATMILLIIVFAIFDSRNLGAPRGLEPIAIGLLIIVIASSLGLNSGCAMNPARDLSPRLFTALAGWGFEVFRAGNNFWWIPVVGPLVGAVIGGLIYVLVIEIHHPEPDSVFKTEQSEDKPEKYELSVIM
- K0.5 ([1]; pH 7.4, 0-2 mM H4SiO4, 30 min): 117 µM
